In general, EC50 (read off the curve) refers to the concentration at which the effect is half-maximal. A higher EC50 (read off the curve) goes with lower potency in that assay.

We go through eight molecules from patent US20200093922A1 (AGENCY FOR SCIENCE TECHNOLOGY AND RESEARCH, published 2020).

Test [1] deals with T1, biotinylated human PD-L1 (human, UniProt Q9NZQ7 19-238, limits assumed, biotinylated (site not stated)). Kind of test: blocking ELISA: biotinylated human PD-L1 pre-incubated with Fab, then added to coated human PD-1-Fc (blocked partner), streptavidin-HRP.
T1 sequence (Q9NZQ7 19-238 limits assumed): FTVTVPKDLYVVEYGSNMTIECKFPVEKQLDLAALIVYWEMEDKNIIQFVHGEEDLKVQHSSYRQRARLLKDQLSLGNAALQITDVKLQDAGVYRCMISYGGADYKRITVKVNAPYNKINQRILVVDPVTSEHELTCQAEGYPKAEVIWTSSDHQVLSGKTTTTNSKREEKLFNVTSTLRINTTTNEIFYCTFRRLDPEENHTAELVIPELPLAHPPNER
The target in test [2] is T2, biotinylated murine PD-L1 (murine, UniProt Q9EP73 19-238, limits assumed, biotinylated (site not stated)). Kind of test: blocking ELISA: biotinylated murine PD-L1 pre-incubated with Fab, then added to coated murine PD-1-Fc (blocked partner), streptavidin-HRP. Background: In an ELISA, binding on a coated surface is turned into a signal by an enzyme label.
T2 sequence (Q9EP73 19-238 limits assumed): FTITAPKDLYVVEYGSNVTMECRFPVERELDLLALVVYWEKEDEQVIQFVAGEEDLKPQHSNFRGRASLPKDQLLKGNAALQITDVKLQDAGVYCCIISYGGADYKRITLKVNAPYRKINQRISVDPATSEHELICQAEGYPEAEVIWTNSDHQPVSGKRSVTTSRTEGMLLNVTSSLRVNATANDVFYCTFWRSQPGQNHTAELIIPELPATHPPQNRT
In test [3] the target is T3, murine PD-L1 coupled to human Fc (murine, UniProt Q9EP73 19-238, limits assumed).
T3 construct: also called murine PD-L1-Fc; mouse PD-L1 coupled to Fc; not shown: human Fc
T3 sequence (Q9EP73 19-238 limits assumed): as above
Kind of test: ELISA on coated murine PD-L1-Fc, Fab detected with anti-human Fab-HRP, absorbance 450-670 nm. The procedure:
After 90 minutes at room temperature under agitation and extensive washes, a goat anti-human Fab antibody coupled to HRP was added. One hour later, plates were washed and TMB substrate added. The reaction was stopped with 1M HCl and optical density measured at 450 nm with a reference at 670 nm.

Test [4] deals with T4, PD-L1 on MDA-MB-231 human breast cancer cells (human, UniProt Q9NZQ7 19-290).
T4 construct: whole, on cells; also called cells expressing PD-L1
T4 sequence (Q9NZQ7 19-290): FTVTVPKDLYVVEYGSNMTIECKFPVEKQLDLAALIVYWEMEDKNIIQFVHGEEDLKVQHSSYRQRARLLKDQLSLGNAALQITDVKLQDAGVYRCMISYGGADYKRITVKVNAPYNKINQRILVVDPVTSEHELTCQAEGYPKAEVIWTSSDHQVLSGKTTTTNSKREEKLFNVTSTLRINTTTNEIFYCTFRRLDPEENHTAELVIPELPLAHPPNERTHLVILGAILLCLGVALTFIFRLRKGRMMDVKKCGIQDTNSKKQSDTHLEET
Description: flow cytometry on MDA-MB-231 cells expressing PD-L1, MFI against IgG1 (nM). For orientation: Flow cytometry measures light scatter and fluorescence of single cells or particles in a stream.

In test [5] the target is PD-L1 (blocking ELISA of Example 13) (Homo sapiens (Human), UniProt Q9NZQ7 19-238). Description: blocking ELISA: antibody pre-incubated with PD-L1, added to coated PD-1 (blocked partner), PD-1-bound PD-L1 detected.
PD-L1 (blocking ELISA of Example 13), sequence (Q9NZQ7 19-238 limits assumed): as the sequence (Q9NZQ7 19-238 limits assumed) above
Test [6] has as its target T1, biotinylated human PD-L1. Kind of test: avidity ELISA: biotinylated human PD-L1 at 0.2 ug/mL on neutravidin, antibody titrated (x axis IgG, nM), anti-human Fc-HRP. The procedure:
Neutravidin was coated onto maxisorp plates at 2 μg/mL in coating buffer and incubated overnight at 4° C. The next day, plates were washed with wash buffer (PBS+0.05% Tween-20), and blocker with casein for 1 hour, at room temperature. Plates were then washed again using wash buffer. […] Plates were then washed again using wash buffer. The different antibodies were then added at various concentrations, and incubated for 1 hour at room temperature. Plates were then washed again using wash buffer. Anti-human Fc-HRP was then added and incubated for 1 hour at room temperature. Plates were then washed again using wash buffer. Finally, TMB was added to develop the ELISA; TMB conversion by HRP was stopped using 1M H-Cl.

Test [7] concerns the target T1, biotinylated human PD-L1. Description: ELISA: antibody coated at 2 ug/mL, biotinylated human PD-L1 titrated (x axis Human PD-L1, nM), streptavidin-HRP. The procedure: Binding was measured by ELISA. Antibodies were coated onto maxisorp plates at 2 μg/mL in coating buffer and incubated overnight at 4° C. The next day, plates were washed with wash buffer (PBS+0.05% Tween-20), and blocker with casein for 1 hour, at room temperature. Plates were then washed again using wash buffer. […] Plates were then washed again using wash buffer. […] Plates were then washed again using wash buffer. Finally, TMB was added to develop the ELISA; TMB conversion by HRP was stopped using 1M H-Cl.

Test [8] deals with T5, human PD-L1 expressed on transfected HEK 293 cells (human, UniProt Q9NZQ7 19-290).
T5 construct: whole, on cells; also called PD-L1 transfected cells; HEK293-6E cells transfected with human PD-L1
T5 sequence (Q9NZQ7 19-290): as the sequence (Q9NZQ7 19-290) above
Description: flow cytometry blocking assay: antibody mixed with human PD-1-PE (blocked partner), added to HEK293 cells transfected with human PD-L1. The source says:
Cells were washed 3 times with PBS and all data were collected on a BD FACSCanto II (BD Bioscience) and analysed on BD FACSDiva software (BD Bioscience).

Test [9] has as its target T2, biotinylated murine PD-L1. Kind of test: blocking ELISA of murine PD-L1 binding to murine PD-1 (blocked partner), Example 3.

B1: anti-PD-L1 antibody clone C4, Fab format (Fab, V domains shown)
VH: QVQLQQSGAEVKKPGSSVKVSCKASGGTFSSYAISWVRQAPGQGLEWMGRIIPILGIANYAQKFQGRVTITADKSTSTAYMELSSLRSEDTAVYYCARGGYGGNSLYAFDIWGQGTMVTVSS
VL: QSVVTQPPSVSAAPGQKVTISCSGSSSNIGNNYVSWYQQLPGTAPKLLIYDNNERLSGIPDRFSGSKSGTSATLGISGLQTGDEADYYCGTWDSSLSVVVFGGGTKLTVL
notes: Tested as Fab
Take B1: in the test with biotinylated human PD-L1 [1], the “IC50 (read off the curve)” value is around 50 nM. For the same molecule, the binding result in test [2] and in test [3] was “binds” each time.

B2: anti-PD-L1 antibody C4 in IgG1 format (antibody, V domains shown)
VH: QVQLQQSGAEVKKPGSSVKVSCKASGGTFSSYAISWVRQAPGQGLEWMGRIIPILGIANYAQKFQGRVTITADKSTSTAYMELSSLRSEDTAVYYCARGGYGGNSLYAFDIWGQGTMVTVSS
VL: QSVVTQPPSVSAAPGQKVTISCSGSSSNIGNNYVSWYQQLPGTAPKLLIYDNNERLSGIPDRFSGSKSGTSATLGISGLQTGDEADYYCGTWDSSLSVVVFGGGTKLTVL
notes: also called C4 IgG1
As for B2, the “EC50 (read off the curve)” value in [4] was around 200 nM.

B3: anti-PD-L1 antibody C4 (format not stated) (antibody, V domains shown)
VH: QVQLQQSGAEVKKPGSSVKVSCKASGGTFSSYAISWVRQAPGQGLEWMGRIIPILGIANYAQKFQGRVTITADKSTSTAYMELSSLRSEDTAVYYCARGGYGGNSLYAFDIWGQGTMVTVSS
VL: QSVVTQPPSVSAAPGQKVTISCSGSSSNIGNNYVSWYQQLPGTAPKLLIYDNNERLSGIPDRFSGSKSGTSATLGISGLQTGDEADYYCGTWDSSLSVVVFGGGTKLTVL
Consider B3, for which the “IC50 (read off the curve)” value in test [5] is around 2 nM. The “EC50 (read off the curve)” value with biotinylated human PD-L1 [6] is around 1 nM; with biotinylated human PD-L1 [7] it was around 0.8 nM.

B4: anti-PD-L1 antibody clone C2, Fab format (Fab, V domains shown)
VH: QVQLQQSGAEVKKPGSSVKVSCKASGGTFSSYAISWVRQAPGQGLEWMGRIIPILGIANYAQKFQGRVTITADKSTSTAYMELSSLRSEDTAVYYCARGGSYGSLYAFDIWGQGTTVTVSS
VL: SYELTQPPSVSVAPGKTTRITCGGDNIGRKSVHWYQQRPGQAPLLLVYDDGDRPSGIPDRFSGSNSGNTATLTISGTQAMDEADYYCQAWDSTVVFGGGTRLTVL
notes: Tested as Fab
As to B4, the “IC50 (read off the curve)” value with biotinylated human PD-L1 [1] was around 50 nM. In addition, the binding result in test [2] and in test [3] was “binds” each time.

B5: anti-PD-L1 antibody H12_GL in IgG1 format (antibody, V domains shown)
VH: QVQLVQSGAEVKKPGSSVKVSCKASGGTFSSYAISWVRQAPGQGLEWMGRIIPILGIANYAQKFQGRVTITADKSTSTAYMELSSLRSEDTAVYYCARSGHGYSYGAFDYWGQGTLVTVSS
VL: QSVLTQPPSVSGAPGQRVTISCTGSSSNIGAGYDVHWYQQLPGTAPKLLIYGNSNRPSGVPDRFSGSKSGTSASLAITGLQAEDEADYYCQSYDSSLSGSYVVFGGGTKLTVL
notes: H12 with its framework reverted to germline-like; IgG1; also called H12_GL-IgG1
B5: the “IC50 (read off the curve)” value in test [8] is around 8 nM.

B6: anti-PD-L1 antibody H12_GL in IgG4 format (antibody, V domains shown)
VH: QVQLVQSGAEVKKPGSSVKVSCKASGGTFSSYAISWVRQAPGQGLEWMGRIIPILGIANYAQKFQGRVTITADKSTSTAYMELSSLRSEDTAVYYCARSGHGYSYGAFDYWGQGTLVTVSS
VL: QSVLTQPPSVSGAPGQRVTISCTGSSSNIGAGYDVHWYQQLPGTAPKLLIYGNSNRPSGVPDRFSGSKSGTSASLAITGLQAEDEADYYCQSYDSSLSGSYVVFGGGTKLTVL
notes: IgG4; also called H12_GL-IgG4
As to B6, the “IC50 (read off the curve)” value in test [8] is around 8 nM.

B7: anti-PD-L1 antibody H12 in IgG1 format (antibody, V domains shown)
VH: EVQLVQSGAEVKKPGASVKVSCKASGGTFSSYAISWVRQAPGQGLEWMGRIIPILGIANYAQKFQGRVTITADKSTSTAYMELSSLRSEDTAVYYCARSGHGYSYGAFDYWGQGTL
VL: QSVLTQPPSVSGAPGQRVTISCTGSSSNIGAGYDVHWYQQLPGTAPKLLIYGNSNRPSGVPDRFSGSKSGTSASLAITGLQAEDEADYYCQSYDSSLSGSYVVFGGGTKLTVL
notes: IgG1; also called H12 (IgG1); H12-IgG1
Take B7: the “EC50 (read off the curve)” value in test [4] is around 200 nM. Moreover, the “IC50 (read off the curve)” value was around 1 nM in test [9] and around 8 nM in test [8].

B8: anti-PD-L1 antibody H12 in IgG4 format (antibody, V domains shown)
VH: EVQLVQSGAEVKKPGASVKVSCKASGGTFSSYAISWVRQAPGQGLEWMGRIIPILGIANYAQKFQGRVTITADKSTSTAYMELSSLRSEDTAVYYCARSGHGYSYGAFDYWGQGTL
VL: QSVLTQPPSVSGAPGQRVTISCTGSSSNIGAGYDVHWYQQLPGTAPKLLIYGNSNRPSGVPDRFSGSKSGTSASLAITGLQAEDEADYYCQSYDSSLSGSYVVFGGGTKLTVL
notes: IgG4; also called H12-IgG4
In the case of B8, the “IC50 (read off the curve)” value in test [8] is around 8 nM.
